Changes are numbered by the printed parent chain. Numbers in names are those of the source. Where “and” joins values, the source holds several entries; their conditions need not be identical. Equal entries are not always repeated.

What is called stoichiometry N is a count of units in the complex or per binding partner.

T1: strep-Hop1 FL K593A (Saccharomyces cerevisiae, UniProt P20050 1-605, K593A)
T1 sequence (looked up): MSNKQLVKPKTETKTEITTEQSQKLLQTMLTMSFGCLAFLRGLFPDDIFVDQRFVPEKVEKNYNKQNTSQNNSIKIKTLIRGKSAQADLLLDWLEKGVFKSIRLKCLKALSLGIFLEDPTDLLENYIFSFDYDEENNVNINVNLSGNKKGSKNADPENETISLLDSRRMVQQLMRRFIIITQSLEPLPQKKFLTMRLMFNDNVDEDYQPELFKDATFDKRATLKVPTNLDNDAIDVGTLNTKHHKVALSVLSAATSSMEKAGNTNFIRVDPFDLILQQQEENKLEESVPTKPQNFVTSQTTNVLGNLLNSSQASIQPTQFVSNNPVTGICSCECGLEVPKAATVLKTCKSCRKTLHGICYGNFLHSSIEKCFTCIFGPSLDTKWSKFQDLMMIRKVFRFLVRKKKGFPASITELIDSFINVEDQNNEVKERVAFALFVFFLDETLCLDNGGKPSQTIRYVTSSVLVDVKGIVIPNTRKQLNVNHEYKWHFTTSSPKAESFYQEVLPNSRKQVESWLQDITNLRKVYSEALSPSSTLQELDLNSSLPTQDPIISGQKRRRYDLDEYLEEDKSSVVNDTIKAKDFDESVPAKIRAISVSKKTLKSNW

B1: MBP-Red1^733-819 (WT) (domain or fragment, Saccharomyces cerevisiae, UniProt P14291 733-819, looked up)
chain: NTFTNKLQEQIYSSINHFSNELVRKISIINQELNKKILKELSEKYQKLFSELQDNFQNDTNEMLKFMGEIKDMMNLPEDQLVHAIRT
B2: MBP-Red1^733-819/I743R (domain or fragment, Saccharomyces cerevisiae, UniProt P14291 733-819, looked up)
chain: B1 chain with I11R
B3: strep-Hop1 (full length, Hop1-Red1 complex from Hi5 cells) (natural protein, Saccharomyces cerevisiae, UniProt P20050 1-605, looked up)
chain: T1 sequence (looked up) with A593K
B4: MBP-Red1 (340-362), wild-type closure motif (peptide, UniProt P14291 340-362, looked up)
chain: FHNVNNIPKISEVQNFLVLDYIE
B5: MBP-Red1^733-827/I743R (domain or fragment, Saccharomyces cerevisiae, UniProt P14291 733-827, looked up)
chain: NTFTNKLQEQRYSSINHFSNELVRKISIINQELNKKILKELSEKYQKLFSELQDNFQNDTNEMLKFMGEIKDMMNLPEDQLVHAIRTRKFDNNKR
B6: MBP-Red1^733-827 (coiled-coil, WT) (domain or fragment, Saccharomyces cerevisiae, UniProt P14291 733-827, looked up)
chain: B5 chain with R11I
B7: Red1^I743R-MBP (Hop1-Red1 complex from Hi5 cells) (natural protein, Saccharomyces cerevisiae, UniProt P14291 1-827, looked up)
chain: MEGLKKKIFGVCLKNDLAQTRNETKGIHYGLMTLETSKQLQEFLHLLVIKREVIQNFELLFHIINVAVKITDSNLPSDDIWHFILKLRFSSEINIDEDSKVLNYLLETGIAMENPVSWKCLAVISSILSSVPQSKKIITNLIETEHAKKIGQLFDNIQDLQQGNFLVEILSNCFKKSASNSKKVEKIPQLWQSRSKNKFFFENEFYPFSSKNGSLQTCQFLCNNFMSTLSFTGILRQVSYSGSETLKNLRIFKKKDDENSYFIQCIYNKIYLWLDEKAPLEFERKKIRITKNLKNKIQIKLRQPFHECVRTTADKTALLFNKTKGFQLEFEDEKLGETFFHNVNNIPKISEVQNFLVLDYIEEEPENEGEEEEQIGRADEQKEDEEEESLDELSTPMVYPIKSSIPHNHNEKVQLVTPDRSVSIRSDEWDLKSNTEDEEGNVLADLKISSTKETKRQTDYVHIDSEDQSPVVSAQMRKMRRESTKTLEILRQEFKDKDVQNKEDQSEQIQNPFVNTSSLVVGKSCLVNPKEKPNIDQTVVGITELKSNSSIKKRDINILDTIFGQPPSKKQKQFHKKEKKKQQKKLTNFKPIIDVPSQDKRNLRSNAPTKPKSIKVSKLRTDKKVTGEKSSPETAAEKVDDQTVRSNDEQAMSRATKEKCFPDVNEGKEITKDDAKVSLESKKNNETFVDSSVVEKHTPPDKDCNNCNITDILESTTVIDLQSPHGLSAPGQNTFTNKLQEQRYSSINHFSNELVRKISIINQELNKKILKELSEKYQKLFSELQDNFQNDTNEMLKFMGEIKDMMNLPEDQLVHAIRTRKFDNNKR

The data set “mass photometry” concerns the molecule itself. The experiment in a line: mass photometry.
For data set [1], the target named is B7. The experiment in a line: pull-down.
Data set [2] deals with B7. The experiment in a line: cross-linking.
The target in a further data set is T1, strep-Hop1 FL K593A. In words: pull-down.
The data set “SEC-MALS” concerns the molecule itself. The experiment in a line: SEC-MALS. (In general: In gel filtration, larger molecules generally elute earlier.)
In data set [3] the target is B3. The experiment in a line: mass photometry.

For B1, the “stoichiometry N” value in the data set “mass photometry” is 4. Still for that read-out and setting: the figure for B2 is 4. On to B3, for which the binding result in data set [1] and in data set [2] was “binds” each time.

As for B4, the binding result with strep-Hop1 FL K593A is recorded as “binds”. Regarding B5, the “stoichiometry N” value in “mass photometry” amounted to 2; in “SEC-MALS”, 4. For B6, the “stoichiometry N” value in “mass photometry” is 2 and 4.

For the molecule B7, the “stoichiometry N” value in data set [3] was 1.
